Source: the supplement of paper PMC12764529

Assay: folding stability dG unfold (combined trypsin and chymotrypsin); higher = more stable
Description: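 Folding stability of de novo designed mini-proteins (<80 aa, no Cys; designed by TrROS, TrMRF, ProteinMPNN and the joint model) was measured by cDNA display proteolysis with trypsin and chymotrypsin. Each protease was used at 11 concentrations in a threefold dilution series plus a no-protease condition. K50 was inferred by Bayesian fitting of sequencing counts, and dG unfold was derived against a sequence-predicted unfolded-state K50 (Tsuboyama et al. method). Sequences shown include variable-length N-terminal GS-type padding (SAGGSAGG...) inside a display construct carrying a PA tag. Rows were kept only if the AF2 dimer inter-PAE was >15, to exclude likely homo-oligomers.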

Sequence | folding stability dG unfold
PDDPEEQREQMPPIPPEWAEELARKFAEKLGDEEVTEVEVDDITPNGYIEVEIENPDGGEVKIEIPMDDIMS [r1_435_TrROS] | < -1 kcal/mol
SAGGSAGGSGMTVEERTSPDGTRVEVYLGPGSVVREESPEGVVTVRTLTDGRVEREEVVPVPASAGGSAGGS [r12_451_JUSTAS] | < -1 kcal/mol
SAGGSAGGSAGGGGKKKREISIMFEGGTPSDFKREAREIANSPENKDNVDEVEITMMPGSAGGSAGGSAGGS [r10_351_TrROS] | < -1 kcal/mol
SAGGPPKWKEVEFRMPPEDLKPDDIVDELQDDGIEIYNGDKPIDPGKSVDDLMQDNPNMPFTIKVWDSAGGS [r8_38_TrROS] | < -1 kcal/mol
SAGQIRIEIEPNPNGKPKIRITMHNPDGPPREREIPIDPGETVSDIADEFFENGMPIRPGSTIEDLIESAGG [r19_263_TrROS] | < -1 kcal/mol
SAGGSAGGSAMEEYEIRVPDKPITIHRSPDGNYSLQYFDNKKTETIPADDLDDLPPGDLFRSAGGSAGGSAG [r3_256_TrROS] | < -1 kcal/mol
SAGKIRIVDSPDQLENAPPGDIVIHHRPSPETGRPRVRLAKYPDGKWEPLARMDSDGKIELPKELKEAISAG [r5_490_TrROS] | < -1 kcal/mol
SAGGSAGGSAGGSMKILYKLKNDNKVITSLEELKKEIESGKKVTIEEVKEIEESPDVPLSAGGSAGGSAGGS [r4_479_JUSTAS] | < -1 kcal/mol
SATVTVETTLSDVDTLLAAAEAAGWAVTRTQEPSSPLRRATITAPLPDGTAAPVTVTVDPASGRAVLVGSAG [r14_169_JUSTAS] | < -1 kcal/mol
SAGGSAGGSANKDDKKKEQRKQRVESKLPIYDPGNGKPWDIEVTGPVDDPEDAVDWLLDWFSAGGSAGGSAG [r3_271_TrROS] | < -1 kcal/mol
SAGGSAPPLTEVTLTEVSTDPETGTTTLTLEASGPVESVPLEFPDGRSVKAERLPDGTLVVTNPGASAGGSA [r15_736_JUSTAS] | < -1 kcal/mol
SAGGSAGGSAGGPEWKEIDIPFDTPEDAIDEAEDKLPPDDKIDVHNPDDGQPITFTVPRNSAGGSAGGSAGG [r7_877_TrROS] | < -1 kcal/mol
SAGGSASPDTRLVRIELKSNVPGTGIEVTETVPLVELEPDEPAEAVAEEVRAAHPVDEVTVTVDPASAGGSA [r15_540_JUSTAS] | < -1 kcal/mol
SAGGSAGGSAGPNDKWKMEMEIEHSIPIEPGDTVRSPDTGEPIKPGKQVSIFRMYMEPAPSAGGSAGGSAGG [r11_793_TrROS] | < -1 kcal/mol
SAGGSAGGSAGGSELVGPEKAKEIIKEAYEKGYEEIPILLHLPNGETEEKIIKVPKNKISAGGSAGGSAGGS [r4_342_TrMRF] | < -1 kcal/mol
SAGGSAGGSAGNEVRVDPDTNLLLVELSNGGRARVLLNEGVIYIEPEGTTFEDIEIEPAASAGGSAGGSAGG [r17_174_TrMRF] | < -1 kcal/mol
SAGGSAGGSDINVRVIELPDEDGTPYLLLEADNPEGLSDEIAAAFPPDWDVRTDDDRVWVLRRSAGGSAGGS [r20_189_TrMRF] | < -1 kcal/mol
SAGGSAGGSKDILANFPPGWKIEEEPNPNGMTRIDIKNPNGNEHRMEFPVNGKPIKFTIKPPESAGGSAGGS [r20_50_TrROS] | < -1 kcal/mol
SAGMKPGEPIMTIKIKVKDPDNGKEVPINIPVRYQYDNGEPKRPISPDDALEEAKDLADRLKKDPNIKISAG [r5_426_TrROS] | < -1 kcal/mol

Sequence | folding stability dG unfold
SAGGSAGGPRRISLMYKFSPDDGEMEPPSIEDLAKKFFPGAEPKNIDIEHNPNNGYMQVEIPIKSAGGSAGG [r6_81_TrROS] | < -1 kcal/mol
SAGGSAGGMELVTLPVVTTEEVPVPPVTKTLPNGTRETVPQPPVTVVRETVLLTTPEEAAALLRSAGGSAGG [r6_120_JUSTAS] | < -1 kcal/mol
SAGGSAPKRRIEIYPNPNGMYRIKVSNPDGKKREHTIDGPGMPLEQLANKLNIPPGFKIDEIEPYPSAGGSA [r15_167_TrROS] | < -1 kcal/mol
SAGGSAGGSAGVIPFDSPEDAERAIEEAFRNGDPVTIHRRNPDGKHQTIPFKIKLPKNDPSAGGSAGGSAGG [r17_462_TrROS] | < -1 kcal/mol
SAGGSAGGSAGKMVEVRIEVDVPDADGRPVRVTFTAPLPLHPDGRIDVPAGRVRRVEVRGSAGGSAGGSAGG [r11_664_TrMRF] | < -1 kcal/mol
SAGGSALKPGQPVMIHVRLKIERPDPDGDEKKIPEIHIPVPVEEAKDIAEALPPNYKVKIDDISIMSAGGSA [r15_833_TrROS] | < -1 kcal/mol
SAGGMVLSDVLPDGTVKPVSEEKIKEIVEKIEKEINAKIEVKIEKKWEGDKWVTTIPVTLIGLSPKLISAGG [r13_790_JUSTAS] | < -1 kcal/mol
SAGGSEPFTPEDLIRKALPVKPKAVVIPGPVSEEEIKALLDAGIPVVIIGKDGSRAVAVGDEVKPLSAGGSA [r2_33_TrMRF] | < -1 kcal/mol
SAGGSAGGSAGPKPVLLTIEVEAKPDEAEAVAKEIYEKEFPEAKDVTVETFPEKGTFRVTFGSAGGSAGGSA [r18_390_TrMRF] | < -1 kcal/mol
SAGGSAGGSAGGSMTVTVEPVPNSDKLRVTTTTTFLNPSNGQVTSTSTSTTVVPPGVAPSAGGSAGGSAGGS [r10_86_JUSTAS] | < -1 kcal/mol
SAGGSAGGSVYYDESEDGVFVRVEGDGAPRVFPVADPEEARYRRIPTPDGRPVRVELRPSEEGSAGGSAGGS [r12_730_TrMRF] | < -1 kcal/mol
SAGGMITTEREVEVPPDELDEVIERLKAEVAAQPLEPAEDIKILEIEEKEEKAVIKYKVTAKVEGEKLLSAG [r5_575_JUSTAS] | < -1 kcal/mol
SAGGSAYITIDDIKKLGPNMPIMVEPPKGRLMIFSPNQMVKITIDPDDDTIKVKEVFDSPEAMEKLSAGGSA [r15_6_TrROS] | < -1 kcal/mol
SAGGLTITVTPSVSENEVVVPGTGKPRFPEPRETYTVTVTPAPDVSLEEVAAEIREKFPGRGYTLTPSAGGS [r8_30_JUSTAS] | < -1 kcal/mol
SAGGSAGGSGFTVLEKDPSTGKVLVRLPPSLVEDVRRLPDVSPVAEEPDSVLLERTIPPGALASAGGSAGGS [r12_694_JUSTAS] | < -1 kcal/mol
SAGGSAGGSAGGKKIKIVKVEPGKVKFSLGKKGKNIPGFEKEVKVEVYEIETDLEPLLNSAGGSAGGSAGGS [r10_654_TrMRF] | < -1 kcal/mol
NWVVWAKLTNPEEGERKTYEVPVPPGEEPTEEEILDQAKDMLGRPKEDLRKNVEIEPYPENGWAEIEIRIRS [r1_285_TrROS] | < -1 kcal/mol
SAGGSAGGSAGGVVELPELPPGDDAEVTEVRTPSPGPVELVLRPPHSDETTTRTLSPERLSAGGSAGGSAGG [r7_342_JUSTAS] | < -1 kcal/mol
SAGGDKKKKEVEFRFPGMPFRVSIQVDPDEGKIPIEIYNPDNGQSLDDLKSNPAMQQMVREAANALKSAGGS [r16_96_TrROS] | < -1 kcal/mol

Sequence | folding stability dG unfold
SAGGSAGGSAGGKITEVDTSNNMVEITLKHPGGKRERPIDPGKTMAQILDELKENPDLVISAGGSAGGSAGG [r7_373_TrROS] | < -1 kcal/mol
SAGGMTIDSPEEAVQAIEDNPDKPLTLLVPTDPSTGSVPEEVVQAFAEPGFPISRDPAGYWTITYPPSAGGS [r16_335_JUSTAS] | < -1 kcal/mol
SAGGSAGGSAGVTDPNSSKPVPSSYVVVTVRGPEKESYYRVPPSEAAAFAAARGVEVILESAGGSAGGSAGG [r17_109_JUSTAS] | < -1 kcal/mol
SAGGSMKSEKVFTDPGPFDGASVTVTATEDGTITITVVDPDGVPKTFTKKVEKGNPEEVVKEAIKESAGGSA [r2_298_TrMRF] | < -1 kcal/mol
SAGGSAGGVEVEADPEYEVEVFEDPETGAVVAIVKGPDEVERALRFIPETGEPVELPLEEFEPLSAGGSAGG [r6_304_TrMRF] | < -1 kcal/mol
SAGGSAGGSAGGSENEPIPIQVKIWDPKDGEPVRTIPFNIWPGRSINELANKFPGVEIVSAGGSAGGSAGGS [r4_187_TrROS] | < -1 kcal/mol
SAGGSAGGSAGRLPPGMKIRIWHRRDGKPRRREFEIPPGMPSIEDAAKEHPPIESVKIERSAGGSAGGSAGG [r11_157_TrROS] | < -1 kcal/mol
SAGSMKLLILATSYPPDGSTTTKPIFGTEEDLKAAVEALPDGEKAATIIEVSEEGLKTIKTETRPPSLGSAG [r5_970_JUSTAS] | < -1 kcal/mol
SAGGMPVVTPTTSTEPLPGGRAATVTTYTPPDGLVRQEVTLPPERRLFRLIDPATGEVVEKEEAELESAGGS [r16_735_JUSTAS] | < -1 kcal/mol
SAGGSAGGSAGGSGMMVPTTVTITVPAPDGTPVRTVTITTTSPTATLEEIKARVAPFLASAGGSAGGSAGGS [r4_375_JUSTAS] | < -1 kcal/mol
SAGGMDPAEAREIAKEIMKKFEENGRPYYAKITIRPDPKIQDIDIMPPGEPLEPRADPGQRTIMFRFPSAGG [r13_693_TrROS] | < -1 kcal/mol
SAGGSPPVPDDETVEIEVPDYKITFHPATQEVTVQTNDPAKAKAVIEALPYPIPYKNIKIVPPEKLSAGGSA [r2_418_JUSTAS] | < -1 kcal/mol
SAGGSAGGSGAFTADNDGGKVYSARLVPLPPGDRPVAVGLDVPVDKPVLVAVLPDRTVVVPLGSAGGSAGGS [r12_994_TrMRF] | < -1 kcal/mol
SAKAKVVEIKEENGKVIIKIEVEDENGNKKTIEIELPKDDIEIVEVDEDKIVIYNKKTGKKITLDLKDLSAG [r14_947_TrROS_Hall] | > 6 kcal/mol
SAGGSAGGSGPRAEELVVVNAPPGYRIPTPDGVPVTVPADAPNVLVRVTYGPGSSSVTVELVQSAGGSAGGS [r12_338_JUSTAS] | < -1 kcal/mol
SAGGSAGGSMTPEKIKKIRKRMEERGYQIPSIETNPGNGMPFININPPDPEMREKDPELRELISAGGSAGGS [r12_482_TrROS] | < -1 kcal/mol
SAGGSAPIKITIHWDPENGMYRIKGKTPDGPVEYPFPRDELRNMPIENFADELNYEIKDVEIEPYPSAGGSA [r15_801_TrROS] | < -1 kcal/mol
SAGGSAGGSPVDEIIEEIKKKGYKANVKSVSVSPNSKGELEIELEINIEKPEPKGTEENIKKKSAGGSAGGS [r12_120_JUSTAS] | < -1 kcal/mol
SAGGSAGGSAGGGYRLVTTTERRTLVYREYDPTTDRFRPVKPVPTTIETTLLAPEDELLSAGGSAGGSAGGS [r10_610_JUSTAS] | < -1 kcal/mol
